In general, Kd refers to a measure of binding affinity in units of concentration. Lower therefore signals tighter binding. By EC50 (read off the curve) is commonly meant the concentration giving half of the maximal effect. A low value points to an effect from little substance.

One experiment addresses T1, HER1 (UniProt P00533 25-645, limits assumed).
T1 construct: also called EGFR
Put plainly: single antigen ELISA, antigen coated; printed as Kd′, from a 4 parametric fit. The procedure: (§1) Briefly 96-well plates were coated overnight at […] with appropriate antigen. The plates were washed and blocked with 1% blotto (Santa Cruz Biotechnologies). Serial dilution of antibodies were added to the plate and incubated for 2 hours at room temperature. Antigen bound IgG was detected using RbαHu IgG HRP Conjugated secondary antibody (Jackson ImmunoResearch) followed by TMB substrate (KPL) addition.
Background: ELISA stands for enzyme-linked immunosorbent assay.

In another experiment the target is T2, CD20 (UniProt P11836 1-297, limits assumed).
T2 sequence (looked up): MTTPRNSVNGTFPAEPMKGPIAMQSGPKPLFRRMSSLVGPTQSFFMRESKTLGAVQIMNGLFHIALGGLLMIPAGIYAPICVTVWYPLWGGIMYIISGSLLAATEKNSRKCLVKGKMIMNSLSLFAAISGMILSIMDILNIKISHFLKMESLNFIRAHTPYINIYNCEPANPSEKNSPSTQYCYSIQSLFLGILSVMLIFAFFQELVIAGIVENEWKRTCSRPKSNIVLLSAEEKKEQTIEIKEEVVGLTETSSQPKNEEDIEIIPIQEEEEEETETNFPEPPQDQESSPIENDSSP
The experiment in a line: CD20 binding titration; legend and text call it an ELISA, but the y axis 'Mean APC-A Intensity' fits the flow cytometry cell-based binding assay on Raji cells.

For a further experiment, the target named is VEGF (UniProt P15692-4 27-191, limits assumed). Put plainly: sandwich (dual antigen) ELISA for PD1 and VEGF bound at once; the filing does not say which antigen is coated and which is detected.
Sequence of VEGF (P15692 other isoform, or with tags, fused parts or gaps limits assumed): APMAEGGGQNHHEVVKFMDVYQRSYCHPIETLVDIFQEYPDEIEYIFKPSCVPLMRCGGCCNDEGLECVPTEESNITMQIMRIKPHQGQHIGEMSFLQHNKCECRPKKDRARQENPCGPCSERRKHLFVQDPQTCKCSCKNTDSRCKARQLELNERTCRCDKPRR
The target in another experiment is PD1 (UniProt Q15116 25-167, limits assumed). The description is as above.
Sequence of PD1 (Q15116 25-167 limits assumed): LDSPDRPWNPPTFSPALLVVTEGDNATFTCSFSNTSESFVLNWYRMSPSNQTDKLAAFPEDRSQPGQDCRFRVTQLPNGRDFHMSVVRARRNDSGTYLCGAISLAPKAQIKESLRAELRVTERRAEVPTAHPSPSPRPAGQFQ
Experiment [1] concerns the target T3, HER3 (UniProt P21860 20-643, limits assumed). Put plainly: single antigen ELISA, HER3 coated, anti-human IgG HRP detection. The procedure: as §1
The target in experiment [2] is T3, HER3. The experiment in a line: single antigen ELISA, antigen coated; printed as Kd′, from a 4 parametric fit. The procedure:
as §1

B1: DL11 WT (antibody, V domains shown)
VH: EVQLVESGGGLVQPGGSLRLSCAASGFTLSGDWIHWVRQAPGKGLEWLGEISAAGGYTDYADSVKGRFTISADTSKNTAYLQMNSLRAEDTAVYYCARESRVSFEAAMDYWGQGTLVTVSS
VL: DIQMTQSPSSLSASVGDRVTITCRASQDLATDVAWYQQKPGKAPKLLIYSASFLYSGVPSRFSGSGSGTDFTLTISSLQPEDFATYYCQQSEPEPYTFGQGTKVEIKR
notes: also called MEHD7945A
In the experiment with HER1, B1 yielded a Kd of 0.0415 nM.

B2: rituximab/obinutuzumab bispecific antibody (bispecific antibody, human IgG1, kappa)
light 1: QIVLSQSPAILSASPGEKVTMTCRASSSVSYIHWFQQKPGSSPKPWIYATSNLASGVPVRFSGSGSGTSYSLTISRVEAEDAATYYCQQWTSNPPTFGGGTKLEIKRTVAAPSVFIFPPSDEDLKSGTASVVCLLDNFYPREAKVQWKVDNALQSGNSQESVTEQDSKDSTYSLSSTLTLSKADYEKHKVYACEVTHQGLSSPVTKSFNRGEC
heavy 1: not shown
light 2: DIVMTQTPLSLPVTPGEPASISCRSSKSLLHSNGITYLYWYLQKPGQSPQLLIYQMSNLVSGVPDRFSGSGSGTDFTLKISRVEAEDVGVYYCAQNLELPYTFGGGTKVEIKRTVAAPSVFIFPPSDEKLKSGTASVVCLLKNFYPREAKVQWKVDNALQSGNSQESVTEQDSKDSTYSLSSALTLSKADYEKHKVYACEVTHQGLSSPVTKSFNRGEC
heavy 2: not shown
notes: Human IgG1/kappa bispecific with four different chains; Both arms are anti-CD20; also called Rxm/Ga101; Rxm/GA101
Turning to B2, in the experiment with CD20, the “EC50 (read off the curve)” value is ~2 µg/mL.

B3: nivolumab/bevacizumab bispecific antibody (bispecific antibody, human IgG1, kappa)
light 1: not shown
heavy 1: not shown
light 2: DIQMTQSPSSLSASVGDRVTITCSASQDISNYLNWYQQKPGKAPKVLIYFTSSLHSGVPSRFSGSGSGTDFTLTISSLQPEDFATYYCQQYSTVPWTFGQGTKVEIKRTVAAPSVFIFPPSDEKLKSGTASVVCLLKNFYPREAKVQWKVDNALQSGNSQESVTEQDSKDSTYSLSSALTLSKADYEKHKVYACEVTHQGLSSPVTKSFNRGEC
heavy 2: not shown
notes: Human IgG1/kappa bispecific with four different chains; also called BsAb
In the case of B3, the “EC50 (read off the curve)” value with VEGF and with PD1 was ~0.2 µg/mL in each case.

B4: Pertuzumab WT (antibody, V domains shown)
VH: EVQLVESGGGLVQPGGSLRLSCAASGFTFTDYTMDWVRQAPGKGLEWVADVNPNSGGSIYNQRFKGRFTLSVDRSKNTLYLQMNSLRAEDTAVYYCARNLGPSFYFDYWGQGTLVTVSS
VL: DIQMTQSPSSLSASVGDRVTITCKASQDVSIGVAWYQQKPGKAPKLLIYSASYRYTGVPSRFSGSGSGTDFTLTISSLQPEDFATYYCQQYYIYPYTFGQGTKVEIKR
B4: in the experiment with HER3 [1], the binding result is “no binding (tested: 1 (axis 'Ab Conc.', no unit printed))”.

B5: pertuzumab/DL11 bispecific antibody (bispecific antibody, human IgG1, kappa)
light 1: DIQMTQSPSSLSASVGDRVTITCKASQDVSIGVAWYQQKPGKAPKLLIYSASYRYTGVPSRFSGSGSGTDFTLTISSLQPEDFATYYCQQYYIYPYTFGQGTKVEIKRTVAAPSVFIFPPSDEDLKSGTASVVCLLDNFYPREAKVQWKVDNALQSGNSQESVTEQDSKDSTYSLSSTLTLSKADYEKHKVYACEVTHQGLSSPVTKSFNRGEC
heavy 1: not shown
light 2: DIQMTQSPSSLSASVGDRVTITCRASQDLATDVAWYQQKPGKAPKLLIYSASFLYSGVPSRFSGSGSGTDFTLTISSLQPEDFATYYCQQSEPEPYTFGQGTKVEIKRTVAAPSVFIFPPSDEKLKSGTASVVCLLKNFYPREAKVQWKVDNALQSGNSQESVTEQDSKDSTYSLSSALTLSKADYEKHKVYACEVTHQGLSSPVTKSFNRGEC
heavy 2: not shown
notes: Human IgG1/kappa bispecific with four different chains; Expressed in Freestyle 293 cells and purified by protein A, gel filtration and the cation exchange main peak; also called P/D; P/D bi-specific
As to B5, the Kd with HER1 and in the experiment with HER3 [2] was 0.0898 nM throughout.

(Values after US20190023810A1 (MIT, published 2019).)
